Here are results for 3 molecules from paper doi:10.1101/2022.11.11.516098.

The target in data set [1] is T1, MLEΔG (UniProt P24785 1-1158). The experiment in a line: cryo-EM.
In the next data set the target is MLEΔGin (UniProt P24785 1-1158, E195C;S633C). The experiment in a line: fluorescence polarization.
Data set [2] addresses T1, MLEΔG. The experiment in a line: fluorescence polarization. (In fluorescence polarisation assays a small probe gives low polarisation when free and higher when bound to something large.)

In the case of UUUUUUUUUU (ssRNA) [U10 RNA], the binding result in the data set with MLEΔG [1] is given as “binds”.

With CCUCUUUCUUUC (ssRNA) [UUC RNA (fluorescein)], the IC50 (in general, the concentration that inhibits the measured activity by half) with MLEΔGin turned out to be 280 ± 19 nM; in the data set with MLEΔG [2], 302 ± 43 nM.

B1: SL7 (SL7mod-UUC) RNA (structured_RNA)
RNA: GUGUAAAAUGUUGCUAGCAAAUAUAUAUGCUAGUAACGUUUUACGCCCUCUUUCUUUCUU
For B1, in the data set with MLEΔG [2], the “apparent K (half saturation)” value turned out to be 16 nM.
